{
  "source": "patent US4732973A",
  "about": "“Active site modified protease α-1-antitrypsin inhibitors” (Chiron Corporation, priority 1984, dated 1988)",
  "key": {"[1]": {"test_system": "human leukocyte elastase (HLE)", "assay": "Anti-elastase activity: inhibition of human leukocyte elastase cleavage of MeO-Suc-Ala-Ala-Pro-Val-p-nitroanilide (A410)", "format": "biochemical", "protocol": "For the assay, extracts were diluted in 50 mM Tris pH8, 50 mM NaCl. […] Assays were initiated by the addition of 0.1 5 μg HLE and were incubated for 15 min at 28° C., terminated by the addition of 100 μl of 8N acetic acid and the absorbance at 410 nm determined (Beatty et al., supra). Protein concentrations were determined as described in Bradford, Anal. Biochem. (1976) 72:248-253. From the amount of human leukocyte elastase activity observed, given the protein concentration of the yeast extracts and the amount of the enzyme added, the percentage of the yeast soluble protein which is α1 -antitrypsin can be calculated. It is assumed that there is 100 percent human leukocyte elastase activity, a 1:1 complex between human leukocyte elastase and α1 -antitrypsin whose molecular weights are 29 kD and 42 kD, respectively."}, "[2]": {"test_system": "human leukocyte elastase (HLE)", "assay": "Oxidation resistance: N-chlorosuccinimide (NCS) treatment, then anti-HLE activity assay", "format": "biochemical", "experimental": "To determine the anti-elastase activities of the mutant (Val) or wild-type (Met) α1 -antitrypsin, appropriate yeast extracts were incubated with human leukocyte elastase (HLE) and a synthetic peptide substrate the cleavage of which can be assayed at 410 nm (Beatty et al., supra). For the assay, extracts were diluted in 50 mM Tris pH8, 50 mM NaCl. […] Assays were initiated by the addition of 0.1 5 μg HLE and were incubated for 15 min at 28° C., terminated by the addition of 100 μl of 8N acetic acid and the absorbance at 410 nm determined (Beatty et al., supra).\nFor this purpose, aliquots of the extracts were diluted in 50 mM Tris pH8, 50 mM NaCl, incubated at room temperature for 5 min in 100 μl of 50 mM Tris pH8, with the indicated amount of NCS, and assayed for anti-HLE activity."}},
  "note": "Values joined by “and” are separate entries in the source; they are usually repeats but may differ in a detail not shown here. Equal entries are not always repeated.",
  "data": [
    {"substance": "α1 AT: Control human α1-antitrypsin added in μg amounts to the elastase assay", "values": [
      {"measurement": "Elastase Activity (%)", "setting": "[1]; Table 1, 0.2 μg control human α1 AT, no NCS", "result": 67, "unit": "%"},
      {"measurement": "Elastase Activity (%)", "setting": "[1]; Table 1, 1.0 μg control human α1 AT plus 3.8 μl Cl/l yeast extract, no NCS", "result": 12, "unit": "%"},
      {"measurement": "Elastase Activity (%)", "setting": "[1]; Table 1, 1.0 μg control human α1 AT, no NCS", "result": "5% and 0%"},
      {"measurement": "Elastase Activity (%)", "setting": "[1]; Table 2, 0.5 μg control human α1 AT, NCS -", "result": 44, "unit": "%"},
      {"measurement": "Elastase Activity (%)", "setting": "[1]; Table 2, 1.0 μg control human α1 AT, NCS -", "result": 10, "unit": "%"},
      {"measurement": "Elastase Activity (%)", "setting": "[2]; Table 1, 1.0 μg control human α1 AT plus 3.8 μl Cl/l yeast extract, NCS (10 mM) 10 μl", "result": 84, "unit": "%"},
      {"measurement": "Elastase Activity (%)", "setting": "[2]; Table 1, 1.0 μg control human α1 AT, NCS (10 mM) 10 μl", "result": 91, "unit": "%"},
      {"measurement": "Elastase Activity (%)", "setting": "[2]; Table 2, 0.5 μg control human α1 AT, NCS (10 mM) +", "result": 96, "unit": "%"}
    ]}
  ]
}
